Source: patent publication CN115433274A (BEIJING KENUO XINCHENG TECH CO LTD, dated 2022)

B1: 食蟹猴SA重组蛋白 (other)
chain: DTHKSEVAHRFKDLGEEHFKGLVLVAFSQYLQQCPFEEHVKLVNEVTEFAKTCVADESAENCDKSLHTLFGDKLCTVATLRETYGEMADCCAKQEPERNECFLQHKDDNPNLPPLVRPEVDVMCTAFHDNEATFLKKYLYEVARRHPYFYAPELLFFAARYKAAFAECCQAADKAACLLPKLDELRDEGKASSAKQRLKCASLQKFGDRAFKAWAVARLSQKFPKAEFAEVSKLVTDLTKVHTECCHGDLLECADDRADLAKYMCENQDSISSKLKECCDKPLLEKSHCLAEVENDEMPADLPSLAADYVESKDVCKNYAEAKDVFLGMFLYEYARRHPDYSVMLLLRLAKAYEATLEKCCAAADPHECYAKVFDEFQPLVEEPQNLVKQNCELFEQLGEYKFQNALLVRYTKKVPQVSTPTLVEVSRNLGKVGAKCCKLPEAKRMPCAEDYLSVVLNRLCVLHEKTPVSEKVTKCCTESLVNRRPCFSALELDEAYVPKAFNAETFTFHADMCTLSEKEKQVKKQTALVELVKHKPKATKEQLKGVMDNFAAFVEKCCKADDKEACFAEEGPKFVAASQAALA
notes: Bought product; also called cyno SA; Cynomolgus serum albumin
B2: 噬菌体展示的纳米抗体2MG6 (VHH)
VHH: QVQLQESGGGLVQAGGSLRLSCAASGSTYPTAYIAWFRQAPGKEREGVAGIYTVGGSTFYTDSVKGRFTISRDNAKNTVYLLMNSLKPEDTAMYFCAAGRTDTAKLRDPRSFGYWGQGTQVTVSS
notes: the phage fusion part is not described; also called 克隆2MG6

How the values were obtained:
[1] = target: T1, 对照抗体ALB8 (ALB8重组蛋白, VHH-hFc) (human); test: ELISA, albumin coated at 1 μg/mL, HRP-anti-human Fc
T1 construct: Control anti-HSA nanobody expressed as fusion with human Fc; also called 对照纳米抗体ALB8
T1 sequence (chain, as listed by the source limits assumed): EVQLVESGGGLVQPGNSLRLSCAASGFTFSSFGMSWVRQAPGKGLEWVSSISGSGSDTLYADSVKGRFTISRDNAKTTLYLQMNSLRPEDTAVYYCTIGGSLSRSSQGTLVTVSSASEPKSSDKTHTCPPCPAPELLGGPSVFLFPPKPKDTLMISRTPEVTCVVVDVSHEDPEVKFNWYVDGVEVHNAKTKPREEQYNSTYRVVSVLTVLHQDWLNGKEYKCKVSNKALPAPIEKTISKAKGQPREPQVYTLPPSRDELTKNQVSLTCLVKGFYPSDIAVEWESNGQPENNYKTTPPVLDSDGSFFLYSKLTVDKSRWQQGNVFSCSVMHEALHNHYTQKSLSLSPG

食蟹猴SA重组蛋白 = target: B1; test: phage ELISA, phage supernatant on cyno SA-coated plate
牛血清白蛋白(BSA) = target: T2, 牛血清白蛋白(BSA) (bovine, UniProt P02769 25-607); test: phage ELISA, phage supernatant on BSA-coated plate
T2 construct: also called Bovine serum albumin

Binder | binding result [1] | binding result (食蟹猴SA重组蛋白) | binding result (牛血清白蛋白(BSA))
B1 | binds | – | –
B2 | – | binds | no binding
